In the data set the test system is MS2 coat protein. The experiment in a line: apparent KD of MS2 coat protein; designed switch direction (-1 OFF switch, 1 ON switch): 1; higher = weaker reporter binding. In short, it runs like this:
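An oligonucleotide input, 200 uM small-molecule ligand, or no input was present during titration of SNAP-549-labelled MS2 coat protein, which was doubled from 0.7 or 1.5 nM to 3 µM. Designed RNA switches had been transcribed on Illumina chips by stalled E. coli RNA polymerase. Apparent KD per design is the median over clusters of curves fitted to normalised cluster fluorescence.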

Where [1] appears, read: Eterna round: R95, input ligand: FMN 200 uM.
Where [2] appears, read: Eterna round: R95, input ligand: microRNA oligo, concentration not stated.
The mark [3] stands for this setting: Eterna round: R95, input ligand: none.
Where [4] appears, read: input ligand: microRNA oligo, concentration not stated.

Take “GUAAAACAUGAGGAUCACCCAUGUCAAUGUAGUCGAGGAUAUGGGUAGCUAUGAGGCGUACUAGAAGGCGAAAAGU [Mat - Same State 1 - Mod of JL - D18] (puzzle: Same State 1)”: the “apparent KD of MS2 coat protein” value runs as follows: under setting [1], 91.8 nM; under setting [2], 85.5 nM; under setting [3], 248 nM.
With “GUAACAUGACGAGGAUAUGGAACAUGAGGAUCACCCAUGUAUGUUCCAUAACGCGAAUAAAGAAUCCAGAAGGCGUCGUGAAAU [Mat - Same State NG 2 - JL mod - D33] (Eterna round: R96, puzzle: Same State NG 2)”, the “apparent KD of MS2 coat protein” value turned out to be 22.1 nM (input ligand: FMN 200 uM), 118 nM under setting [4] and 120 nM (input ligand: none).
For “GUAAGGCAAGCUUUUUUCUCGUAGUGUAAACAUGAGGAUCACCCAUGUGCUCGCCCUGGACCUUUGGAUCGCAGAAA [Tiesmain] (puzzle: Sensor for hsa-mir-208a)”, the “apparent KD of MS2 coat protein” value by setting is: under setting [1], 36.4 nM; under setting [2], 22.2 nM; under setting [3], 46.3 nM.
Regarding “GUAAUCGUUAUAGGAUAUCAUGAGGAUUACCCAUGAGAAGGGUGAUCUCGAUCCAUAUUCAGAAAAUGAAUGUGGAUAGAUUGC [Omei NG1 A v2] (Eterna round: R96, puzzle: Same State NG 1)”, the “apparent KD of MS2 coat protein” value by setting is: (input ligand: FMN 200 uM) 1010 nM; under setting [4], 292 nM; (input ligand: none) 1150 nM.
In the case of “GUACUACAUGAGGAUCACCCAUGUACGCCAGUACGAGGAUAUGCAUGGGCGCUAGCUGGUGCAGAAGGCGUAGUGC [Pin2Pin #6] (puzzle: Same State 1)”, the “apparent KD of MS2 coat protein” value under setting [1] turned out to be 21 nM, the “apparent KD of MS2 coat protein” value under setting [2] worked out at 24 nM and the “apparent KD of MS2 coat protein” value under setting [3] was determined as 45.5 nM.
For “GUAGAUAUAAAGGAGGAUAUUCAAUGAGAGACAUGAGGAUCACCCAUGUGAGAGUGAGAUGAUAGGAAGAAGGCUUAGAGAGAUG [Altered State 2-6 - Jieux - Same State 2] (puzzle: Same State 2)”, in that order: 64.1 nM, 54.9 nM and 72 nM.
In the case of “GUAGAUAUAGAGGAGGAUAUUCAAUGAGGAACAUGAGGAUCACCCAUGUAAGAGAGAGAUGAUGAGAAGAAGGCUUAGAGGGAUG [Altered State 2-3 - Jieux - Same State 2] (puzzle: Same State 2)”, the “apparent KD of MS2 coat protein” value was found to be 46.5 nM under setting [1], 84.6 nM under setting [2] and 62 nM under setting [3].
Turning to “GUAGCAGGCACAGGAUAUGUUGACCAGGGAGUACAUGAGGAUCACCCAUGUCCGACACACCGGCAAUAGAAGGGUGAGUGGCAG [Eternabot solution 17] (Eterna round: R96, puzzle: Same State NG 2)”, the “apparent KD of MS2 coat protein” value was 35.8 nM (input ligand: FMN 200 uM), 44.9 nM under setting [4] and 78.1 nM (input ligand: none).
For “GUAGCAUACCGAGGAUAUUCACAUGAGGAUCACCCAUGUAUUAAUAGGCCACAUUAGUGGCCUUGGGAGAAGGCGGAAUGCUAC [Xeonanis - 20 Mod48] (Eterna round: R96, puzzle: Same State NG 2)”, in that order: 10.8 nM, 11 nM and 14.6 nM.
In the same order, the values of “GUAGCAUACCGAGGAUAUUCAUAUAAUAAAUACAUGAGGAUCACCCAUGUAAGGCGAAAGCCUUGGGAGAAGGCGGAAUGCUAC [Xeonanis - 20 Mod59] (Eterna round: R96, puzzle: Same State NG 2)” are 12.6 nM, 31.9 nM and 36.3 nM.
In the same order, the values of “GUAGCAUACCGAGGAUAUUCAUAUAAUAAAUACAUGAGGAUCACCCAUGUUAGGCGAAAGCCUUGGGAGAAGGCGGAAUGCUAC [Xeonanis - 20 Mod58] (Eterna round: R96, puzzle: Same State NG 2)” are 14.4 nM, 35.8 nM and 44.8 nM.
As to “GUAGCAUACCGAGGAUAUUCAUAUAAUAUACAUGAGGAUCACCCAUGUUAUAGGCGAAAGCCUUGGGAGAAGGCGGAAUGCUAC [Xeonanis - 20 Mod62] (Eterna round: R96, puzzle: Same State NG 2)”, the “apparent KD of MS2 coat protein” value reads like this: (input ligand: FMN 200 uM) 8.73 nM; under setting [4], 15.3 nM; (input ligand: none) 14.9 nM.
In the same order, the values of “GUAGCAUACCGAGGAUAUUCAUAUUAAACAUGAGGAUCACCCAUGUAUUAGGCCAAAAGGCCUUGGGAGAAGGCGGAAUGCUAC [Xeonanis - 20 Mod5] (Eterna round: R96, puzzle: Same State NG 2)” are 24.6 nM, 28.3 nM and 48.3 nM.
In the same order, the values of “GUAGCAUACCGAGGAUAUUCAUAUUACAUGAGGAUCACCCAUGUUUUAGGCCGAUUACGGCCUUGGGAGAAGGCGGAAUGCUAC [Xeonanis - 20 Mod23] (Eterna round: R96, puzzle: Same State NG 2)” are 13.8 nM, 20.1 nM and 28.8 nM.
Regarding “GUAGCAUGCAGGCAGGAUAUUCAUAUUAAAACAUGAGGAUCACCCAUGUAGGCCAGAAGGCCUUGGGAGAAGGGCCACAUGCUAC [Xeonanis - 17] (puzzle: Same State 2)”, the “apparent KD of MS2 coat protein” value is, setting by setting: under setting [1], 36.9 nM; under setting [2], 595 nM; under setting [3], 800 nM.
With “GUCAGCGAUUGAGGAUAUCACGUCGAUUAGACGUGAGAAGGCGAUCAUAACAUGAGGAUCACCCAUGUAUUACAUGAAGCUGAC [SSNG1/5-A2] (Eterna round: R96, puzzle: Same State NG 1)”, the “apparent KD of MS2 coat protein” value by setting is: (input ligand: FMN 200 uM) 19.6 nM; under setting [4], 17.5 nM; (input ligand: none) 27.1 nM.
Regarding “GUCCAAAACACAGGAUAUCCCAGUCAUGAACUGGGAGAAGGGUGGCCACAUGAGGAUCACCCAUGUGAAGUGCGAGAGGCACGA [Arquarais] (Eterna round: R96, puzzle: Same State NG 1)”, the “apparent KD of MS2 coat protein” value (input ligand: FMN 200 uM) turned out to be 253 nM, the “apparent KD of MS2 coat protein” value under setting [4] amounted to 595 nM and the “apparent KD of MS2 coat protein” value (input ligand: none) came out at 937 nM.
In the same order, the values of “GUCCGUAUCACAGGAUAUCCUAGUCAUGAUCUAGGAGAAGGGUGGCCACAUGAGGAUCACCCAUGUGAAGUGCCAGAGGCACGA [MOD2 Xexeraed] (Eterna round: R96, puzzle: Same State NG 1)” are 687 nM, 64.8 nM and 149 nM.
For “GUGCUCGUGUGAGGAUAUGUUGCCGGGUCGGCUGCAGAAGGUACUAUUAUACAUGAGGAUCACCCAUGUCGCUUUUCUCCGGUA [salish99_SSNG1_r04_921] (Eterna round: R96, puzzle: Same State NG 1)”, in that order: 88 nM, 49.6 nM and 73.5 nM.
For the sequence “GUGGAGGGUUGAGGAUAUUGGUUGCAUAUGUUUAACAUGAGGAUCACCCAUGUGGGUUGCGGUUUCGAGAAGGUAGGUUGCUGG [salish99_SSNG2_r04_043] (Eterna round: R96, puzzle: Same State NG 2)”, the “apparent KD of MS2 coat protein” value was determined as 90.8 nM (input ligand: FMN 200 uM), 82.2 nM under setting [4] and 75.2 nM (input ligand: none).
Turning to “GUGGUCAGACAUGAGGAUCACCCAUGUGGAAUAAAUAAGGACUAGGAUAUGGAAUAUAGGAUAUACCAGAAGGAGUGGUUGGUG (Eterna round: R96, puzzle: Same State NG 3)”, under setting [4], the “apparent KD of MS2 coat protein” value worked out at 36.5 nM.
Regarding “GUGGUCAGACAUGAGGAUCACCCAUGUGGAAUAAAUAAGGACUAGGAUAUUUAAUAUAGGAUAUAAAAGAAGGAGUGGUUGGUG (Eterna round: R96, puzzle: Same State NG 3)”, the “apparent KD of MS2 coat protein” value (input ligand: FMN 200 uM) is 85.1 nM, the “apparent KD of MS2 coat protein” value under setting [4] was 44.1 nM and the “apparent KD of MS2 coat protein” value (input ligand: none) was 59.6 nM.
“GUGGUCAGACAUGAGGAUCACCCAUGUGGAAUAAAUAAGGGACAGGAUAUUCAAUAUAGGAUAUAGAAGAAGGGUUGGUUGGUG (Eterna round: R96, puzzle: Same State NG 3)”: the “apparent KD of MS2 coat protein” value under setting [4] is 104 nM.
Take “GUGGUGUAGAUACAGGAUAUGUUGCUCGUAACAUGAGGAUCACCCAUGUAUCUAUGAGAAUAAAUGCAGAAGGGUGCACACCACG [Mat - Same State 2 - Mod of UCT - D73] (puzzle: Same State 2)”: the “apparent KD of MS2 coat protein” value reads like this: under setting [1], 19.1 nM; under setting [2], 352 nM; under setting [3], 311 nM.
In the same order, the values of “GUGGUGUAGAUACAGGAUAUGUUGCUCGUAACAUGAGGAUCACCCAUGUAUCUAUGAGAUUAAAUGCAGAAGGGUGCACACCACU [salish99_ss2_r3_086] (puzzle: Same State 2)” are 15.7 nM, 148 nM and 325 nM.
Consider “GUUAAACAUGAGGAUCACCCAUGUCAAUGUAGUCGAGGAUAUGGGCAGCUAUGAGGCGUACUAGAAGGCGAAGAGU [Mat - Same State 1 - Mod of JL - D12] (Eterna round: R96, puzzle: Same State 1)”, for which, under setting [4], the “apparent KD of MS2 coat protein” value came out at 224 nM.
Consider “GUUAAACAUGAGGAUCACCCAUGUCAAUGUAGUCGAGGAUAUGGGCAGCUAUGAGGCGUACUAGAAGGCGAAGAGU [Mat - Same State 1 - Mod of JL - D12] (puzzle: Same State 1)”, for which the “apparent KD of MS2 coat protein” value was 106 nM under setting [1], 196 nM under setting [2] and 280 nM under setting [3].
With “GUUACAUGAGGAUCACCCAUGUAUGUGUGGGAGUAAGUGUCUUAGGAUAUCUAUGAUUUAAUUAAAGAGAAGGAAGAUUGUUGU [JMF's solution 83] (Eterna round: R96, puzzle: Same State NG 3)”, the “apparent KD of MS2 coat protein” value is 154 nM (input ligand: FMN 200 uM), 85 nM under setting [4] and 103 nM (input ligand: none).

The record behind these values is the supplement of paper PMC9170038.
